Measurements: patent US20250288684A1, “ACETAL-TYPE RELEASABLE POLYOXYETHYLENE DERIVATIVE, PRODUCTION METHOD THEREOF AND ACETAL-TYPE RELEASABLE POLYOXYETHYLENE CONJUGATE” (NOF CORPORATION, priority 2022, published 2025)

Key:
[1] = Degradability test: decomposition in deuterium oxide buffer solution, NMR measurement; assay type: physicochemical; conditions: pH 7.4; sodium phosphate deuterium oxide buffer solution, pD 7.4, 40° C.; β-alanine adduct amount by NMR; read-out: half-life (t½) (converted)
Description: Each of the compounds of Formulas (50), (51), (52) and (53) (20 mg) was dissolved in sodium phosphate deuterium oxide buffer solution (0.7 mL) having a pD of 7.4, and then placed in a thermostatic bath at 40° C., and NMR measurement was performed at a random timing. […] A half-life (t½) was calculated from a formula (in which ln represents a logarithm with the Napier's number as a base, and λ represents a product of an exponent of the Napier's number in an approximation formula of the graph and −1) based on the approximation formula.
Each of the compounds of Formulas (75), (76), (77) and (78) (20 mg) was dissolved in sodium phosphate deuterium oxide buffer solution (0.7 mL) having a pD of 7.4, and then placed in a thermostatic bath at 40° C., and NMR measurement was performed at a random timing.

[2] = Evaluation of stability of PEGylated insulin in buffer solutions with various pH values (HPLC); assay type: physicochemical; conditions: pH 6.0, 7.0, 8.0 and 9.0 buffer solutions, 25° C.
Description: With 100 μL of 100 mM phosphate buffer solution (pH 6.0), 100 μL of 100 mM phosphate buffer solution (pH 7.0), 100 μL of 100 mM ammonium formate buffer solution (pH 8.0), or 100 μL of 100 mM ammonium formate buffer solution (pH 9.0), 100 μL of 0.5 mg/mL PEG(20k)-OCO-NH-insulin prepared in Comparative Example 4 or 100 μL of 0.5 mg/mL 2MPEG(20k)-OCO-NH-insulin prepared in Example 26 was mixed, and then allowed to stand at 25° C. and subjected to HPLC analysis at a random timing.

Compound	half-life at 28.6 mg/mL [1]	change in amount of PEGylated insulin over time [2]
COCCOc1cccc(C2OCc3cc(COC(=O)NCCC(=O)O)ccc3O2)c1 (centres unmarked) [Formula (53)]	231 days	–
PEG(20k)-OCO-NH-insulin: insulin reacted with SUNBRIGHT MENP-20T [reference compound]	–	no decrease
